The text below walks through data of patent publication US20220112291A1 (Pfizer, published 2022).

Test [1] concerns the target human CD1a expressed on cells (human, UniProt P06126 17-327). The experiment in a line: cell-based or functional assay.
In test [2] the target is T1, human single-chain CD1a-β2M recombinant protein (Human B2M-CD1a ECD-Avi-His6) (human).
T1 construct: Biotinylated in the HTRF, phage selection and Gyrolab assays; also called human CD1a; CD1a protein
The experiment in a line: SPR (Biacore), IgG; antigen taken as human CD1a. (Surface plasmon resonance follows binding to a sensor surface in real time, without labels.)

In test [3] the target is T1, human single-chain CD1a-β2M recombinant …. Put plainly: competition ELISA on plate-coated CD1a protein; competitor: biotinylated parental chimeric Ab40 at a fixed concentration; streptavidin-HRP, OD450.
Experimental: For competition ELISA, high-binding Costar ELISA plates were coated with 0.1 μg per well (100 μL of 1 μg/mL) CD1a protein in PBS buffer overnight at 4° C. Plates were then washed and blocked for 3 hours with PBS+3% bovine serum albumin (BSA) at room temperature. […] After 2 hours incubation, plates were washed and incubated for 1 hour with streptavidin-HRP secondary reagent. After washing, plates were incubated with one-component HRP substrate and the developed color measured at 450 nm using Envision plate reader (Perkin Elmer).

A word on the Kd: it is a measure of binding affinity in units of concentration. As a reminder, the IC50 is the concentration at which inhibition is half-maximal.

Sequence of human CD1a expressed on cells (P06126 17-327): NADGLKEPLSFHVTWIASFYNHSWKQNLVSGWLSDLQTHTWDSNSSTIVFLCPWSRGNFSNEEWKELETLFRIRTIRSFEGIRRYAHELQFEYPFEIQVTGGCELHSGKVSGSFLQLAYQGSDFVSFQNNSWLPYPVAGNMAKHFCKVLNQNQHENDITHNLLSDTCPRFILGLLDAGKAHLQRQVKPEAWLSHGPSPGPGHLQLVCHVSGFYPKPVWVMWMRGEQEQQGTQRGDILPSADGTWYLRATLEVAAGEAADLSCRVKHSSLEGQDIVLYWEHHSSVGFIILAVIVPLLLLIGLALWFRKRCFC
T1 sequence (chain, as listed by the source limits assumed): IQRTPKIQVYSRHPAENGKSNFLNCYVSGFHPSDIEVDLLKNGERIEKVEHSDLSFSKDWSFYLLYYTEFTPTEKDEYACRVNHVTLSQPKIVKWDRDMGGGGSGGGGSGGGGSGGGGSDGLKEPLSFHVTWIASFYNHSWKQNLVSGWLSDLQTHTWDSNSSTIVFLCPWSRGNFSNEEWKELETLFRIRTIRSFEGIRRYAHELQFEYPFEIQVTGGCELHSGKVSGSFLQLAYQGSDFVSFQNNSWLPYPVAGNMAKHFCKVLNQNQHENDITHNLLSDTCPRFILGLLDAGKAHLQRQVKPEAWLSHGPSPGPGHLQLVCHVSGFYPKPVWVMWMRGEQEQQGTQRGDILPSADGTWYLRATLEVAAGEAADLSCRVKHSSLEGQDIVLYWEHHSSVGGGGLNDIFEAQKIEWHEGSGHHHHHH

B1: Ab138 (antibody, human IgG1, kappa, V domains shown)
VH: EVQLVESGGGLVQPGGSLRLSCAASGFTFTDFYMNWVRQAPGKGLEWVAFIRNKANGYTTESNPSVKGRFTISRDNAKNSLYLQMNSLRAEDTAVYYCARETTGIPTGWFAYWGQGTLVTVSS
VL: DIQMTQSPSSLSASVGDRVTITCLASEDISNDLAWYQQKPGKAPKLLIYGANRLKDGVPSRFSGSGSGTDYTLTISSLQPEDFATYYCQQSYKYPYTFGQGTKLEIKR
notes: Humanized variant of chimeric Ab40; human IgG1 (L234A/L235A/G237A, effector function null) / human kappa; heavy chain can be prepared with or without the terminal lysine; Tb-labeled in the HTRF assay; also called humanized anti-CD1a antibody Ab138; parental Ab138
Consider B1, for which the “Inhibition of CD69 expression, IC50” value in test [1] was found to be 1.97 nM. Further, the Kd in test [2] worked out at 3.87 nM. Moreover, the IC50 in test [3] is 1.94 nM.

B2: Ab689 (antibody, human IgG1, kappa, V domains shown)
VH: EVQLVESGGGLVQPGGSLRLSCAASGFTFTDHYMHWVRQAPGKGLEWVAHTRDKAGGYTTESNPAVKGRFTISRDNAKNSLYLQMNSLRAEDTAVYYCARETTRIPTGWFAYWGQGTLVTVSS
VL: DIQMTQSPSSLSASVGDRVTITCLASEDIYFDLAWYQQKPGKAPKLLIYGGDRLQEGVPSRFSGSGSGTDYTLTISSLQPEDFATYYCQQSYSYPYTFGQGTKLEIKR
notes: Optimized variant of Ab138; human IgG1 effector null / kappa; HC with or without terminal lysine
As to B2, in test [1], the “Inhibition of CD69 expression, IC50” value came out at 0.41 nM and the “Inhibition of IL-2 production, IC50” value amounted to 0.17 nM. Also, in test [2], the Kd was 3.59 nM.

B3: Ab616 (antibody, human IgG1, kappa, V domains shown)
VH: EVQLVESGGGLVQPGGSLRLSCAASGFTFEDHYMHWVRQAPGKGLEWVGHISGSAGGYTTESNPAVKGRFTISRDNAKNSLYLQMNSLRAEDTAVYYCARETTRIPTGWFAYWGQGTLVTVSS
VL: DIQMTQSPSSLSASVGDRVTITCLASEDIYFDLAWYQQKPGKAPKLLIYGGDRLKEGVPSRFSGSGSGTDYTLTISSLQPEDFATYYCQQSYSYPYTFGQGTKLEIKR
notes: as for B2
Consider B3, for which, in test [1], the “Inhibition of CD69 expression, IC50” value came to 0.41 nM and the “Inhibition of IL-2 production, IC50” value was found to be 0.11 nM. The Kd in test [2] came out at 0.46 nM.

B4: Ab660 (antibody, human IgG1, kappa, V domains shown)
VH: EVQLVESGGGLVQPGGSLRLSCAASGFTFTDHYMHWVRQAPGKGLEWVGHIRNAAGGYTTESNPAVKGRFTISRDNAKNSLYLQMNSLRAEDTAVYYCARETTRIPTGWFAYWGQGTLVTVSS
VL: DIQMTQSPSSLSASVGDRVTITCLASEDIYFDLAWYQQKPGKAPKLLIYGASTPKDGVPSRFSGSGSGTDYTLTISSLQPEDFATYYCQQSEKYPYTFGQGTKLEIKR
notes: as for B2
For the molecule B4, in test [1], the “Inhibition of CD69 expression, IC50” value was found to be 0.33 nM and the “Inhibition of IL-2 production, IC50” value amounted to 0.15 nM. Also, the Kd in test [2] stood at 0.57 nM.

B5: Ab673 (antibody, human IgG1, kappa, V domains shown)
VH: EVQLVESGGGLVQPGGSLRLSCAASGFTFTDHYMHWVRQAPGKGLEWVAHTRDKAGGYTTESNPAVKGRFTISRDNAKNSLYLQMNSLRAEDTAVYYCARETTRIPTGWFAYWGQGTLVTVSS
VL: DIQMTQSPSSLSASVGDRVTITCLASEDIYFDLAWYQQKPGKAPKLLIYGGDRLKEGVPSRFSGSGSGTDYTLTISSLQPEDFATYYCQQSYSYPYTFGQGTKLEIKR
notes: as for B2
For the molecule B5, in test [1], the “Inhibition of CD69 expression, IC50” value was found to be 0.3 nM and the “Inhibition of IL-2 production, IC50” value came out at 0.18 nM. Besides, the Kd in test [2] was determined as 0.21 nM.

B6: Ab624 (antibody, human IgG1, kappa, V domains shown)
VH: EVQLVESGGGLVQPGGSLRLSCAASGFDFTDHYMHWVRQAPGKGLEWVAHTRDKAGGYTTESNPAVKGRFTISRDNAKNSLYLQMNSLRAEDTAVYYCARETTRIPTGWFAYWGQGTLVTVSS
VL: DIQMTQSPSSLSASVGDRVTITCLASEDIYFDLAWYQQKPGKAPKLLIYGGDRLKEGVPSRFSGSGSGTDYTLTISSLQPEDFATYYCQQSYSYPYTFGQGTKLEIKR
notes: as for B2
On to B6, for which, in test [1], the “Inhibition of CD69 expression, IC50” value came out at 0.35 nM and the “Inhibition of IL-2 production, IC50” value was 0.17 nM. Further, the Kd in test [2] worked out at 1.3 nM.

B7: Ab681 (antibody, human IgG1, kappa, V domains shown)
VH: EVQLVESGGGLVQPGGSLRLSCAASGFTFTDHYMHWVRQAPGKGLEWVAHTRDKAGGYTTESNPAVKGRFTISRDNAKNSLYLQMNSLRAEDTAVYYCARETTRIPTGWFAYWGQGTLVTVSS
VL: DIQMTQSPSSLSASVGDRVTITCLASEDIYFDLAWYQQKPGKAPKLLIYGGDRLQEGVPSRFSGSGSGTDYTLTISSLQPEDFATYYCQQSESYPYTFGQGTKLEIKR
notes: as for B2
Turning to B7, in test [1], the “Inhibition of CD69 expression, IC50” value turned out to be 0.42 nM and the “Inhibition of IL-2 production, IC50” value is 0.12 nM. Besides, in test [2], the Kd turned out to be 1.22 nM.

B8: Ab656 (antibody, human IgG1, kappa, V domains shown)
VH: EVQLVESGGGLVQPGGSLRLSCAASGFDFTDHYMHWVRQAPGKGLEWVAHTRDKAGGYTTESNPAVKGRFTISRDNAKNSLYLQMNSLRAEDTAVYYCARETTRIPTGWFAYWGQGTLVTVSS
VL: DIQMTQSPSSLSASVGDRVTITCLASEDIYFDLAWYQQKPGKAPKLLIYGGDRLQEGVPSRFSGSGSGTDYTLTISSLQPEDFATYYCQQSYSYPYTFGQGTKLEIKR
notes: as for B2
Regarding B8, in test [1], the “Inhibition of CD69 expression, IC50” value was 0.48 nM and the “Inhibition of IL-2 production, IC50” value came out at 0.22 nM. Moreover, in test [2], the Kd was 0.54 nM.

B9: Ab623 (antibody, human IgG1, kappa, V domains shown)
VH: EVQLVESGGGLVQPGGSLRLSCAASGFTFEDHYMHWVRQAPGKGLEWVAHTRDKAGGYTTESNPAVKGRFTISRDNAKNSLYLQMNSLRAEDTAVYYCARETTRIPTGWFAYWGQGTLVTVSS
VL: DIQMTQSPSSLSASVGDRVTITCLASEDIYFDLAWYQQKPGKAPKLLIYGGDRLKEGVPSRFSGSGSGTDYTLTISSLQPEDFATYYCQQSYSYPYTFGQGTKLEIKR
notes: as for B2
On to B9, for which, in test [1], the “Inhibition of CD69 expression, IC50” value stood at 0.35 nM and the “Inhibition of IL-2 production, IC50” value came to 0.17 nM. For the same molecule, the Kd in test [2] was found to be 0.56 nM.

B10: Ab657 (antibody, human IgG1, kappa, V domains shown)
VH: EVQLVESGGGLVQPGGSLRLSCAASGFTFTDHYMHWVRQAPGKGLEWVAHTRDKAGGYTTESNPAVKGRFTISRDNAKNSLYLQMNSLRAEDTAVYYCARETTRIPTGWFAYWGQGTLVTVSS
VL: DIQMTQSPSSLSASVGDRVTITCLASEDIYFDLAWYQQKPGKAPKLLIYGASTPKDGVPSRFSGSGSGTDYTLTISSLQPEDFATYYCQQSEKYPYTFGQGTKLEIKR
notes: as for B2
As for B10, in test [1], the “Inhibition of CD69 expression, IC50” value was found to be 0.51 nM and the “Inhibition of IL-2 production, IC50” value turned out to be 0.19 nM. The Kd in test [2] is 0.41 nM.

B11: Ab610 (antibody, human IgG1, kappa, V domains shown)
VH: EVQLVESGGGLVQPGGSLRLSCAASGFDFTDHYMHWVRQAPGKGLEWVAHTRDKAGGYTTESNPAVKGRFTISRDNAKNSLYLQMNSLRAEDTAVYYCARETTRIPTGWFAYWGQGTLVTVSS
VL: DIQMTQSPSSLSASVGDRVTITCLASEDIYFDLAWYQQKPGKAPKLLIYGGDRLKEGVPSRFSGSGSGTDYTLTISSLQPEDFATYYCQQSESYPYTFGQGTKLEIKR
notes: as for B2
As to B11, in test [1], the “Inhibition of CD69 expression, IC50” value was found to be 0.44 nM and the “Inhibition of IL-2 production, IC50” value was found to be 0.09 nM. Besides, the Kd in test [2] came to 0.21 nM.
